Measured values as given in patent US20170362314A1 (CANCER RESEARCH TECHNOLOGY, published 2017).

Legend:
[1] = biological target: human CXCL12 (soluble ligand in the cell migration assays) (human, UniProt P48061-2 22-89, limits assumed); assay: cell-based or functional assay
[2] = biological target: T1, biotinylated CXCL12 (synthesised 68 amino acid CXCL12) (human, UniProt P48061 22-89, biotinylated (site not stated)); assay: SPR: Fab over biotinylated CXCL12 on a streptavidin chip
T1 construct: also called SDF-1
Experimental: (§1) FIG. 3. Affinity measurement of anti-CXCL12 antibodies using SPR A) Sensograms of multiple concentrations of lead and parental anti-CXCL12 Fabs binding to biotinylated CXCL12 immobilised on a streptavidin chip (carboxymethylated dextran matrix pre-immobilised with streptavidin). […] The equilibrium dissociation constant (KD) of the parent clone 093_2D06 was calculated using steady state binding model due to its very fast off-rate. […] The binding constants of these antibodies were determined using two-state binding model. Biacore T100 evaluation software was used for all calculations.
(§2) The lead anti-CXCL12 antibodies and their parent clones were subjected to a full kinetic analysis to determine the improvement in binding constants after affinity maturation. The binding of the Fab antibodies to biotinylated CXCL12 immobilised on a streptavidin chip was analysed using SPR (FIG. 3). Equilibrium dissociation constants (KD) of these antibodies were determined using a binding model appropriate for each binding interaction (FIGS. 3B and C). […] Such binding profiles are generally associated with binding interactions that involve antibody (or any other analyte) induced conformational change of the ligand resulting in a two-step binding. […]

[3] = biological target: T1, biotinylated CXCL12 (synthesised 68 …); assay: affinity constant for human CXCL12, Fab format; method not restated; comparison with WO 2008/018641; method not restated
[4] = biological target: T1, biotinylated CXCL12 (synthesised 68 …); assay: SPR (Biacore T100), Fab over biotinylated CXCL12 immobilised on a streptavidin chip, 1:1 Langmuir binding model [panel B table]
Experimental: as §1, §2

[5] = biological target: T1, biotinylated CXCL12 (synthesised 68 …); assay: SPR (Biacore T100), Fab over biotinylated CXCL12 immobilised on a streptavidin chip, 1:1 Langmuir binding model [Continued) (panel B table]
Experimental: as §1, §2

[6] = biological target: T1, biotinylated CXCL12 (synthesised 68 …); assay: SPR (Biacore T100): Fab over biotinylated CXCL12 on a streptavidin chip, 1:1 Langmuir model; SPR kinetic analysis, Fab over biotinylated CXCL12 on streptavidin chip
Experimental: as §1, §2

[7] = biological target: T1, biotinylated CXCL12 (synthesised 68 …); assay: SPR: Fab over biotinylated CXCL12 on a streptavidin chip, two-state binding model
Experimental: as §1, §2

[8] = biological target: T1, biotinylated CXCL12 (synthesised 68 …); assay: SPR (Biacore T100): Fab over biotinylated CXCL12 on a streptavidin chip, two-state binding model; SPR, two-state binding model
Experimental: as §1, §2

[9] = biological target: T1, biotinylated CXCL12 (synthesised 68 …); assay: SPR (Biacore T100), Fab over biotinylated CXCL12 immobilised on a streptavidin chip, two-state binding model [panel C table]
Experimental: as §1, §2

[10] = biological target: T1, biotinylated CXCL12 (synthesised 68 …); assay: SPR (Biacore T100), Fab over biotinylated CXCL12 immobilised on a streptavidin chip, two-state binding model [Continued) (panel C table]
Experimental: as §1, §2

T1 sequence (P48061 22-89 limits assumed): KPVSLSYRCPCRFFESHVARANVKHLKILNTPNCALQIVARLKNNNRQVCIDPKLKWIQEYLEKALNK
Chain of human CXCL12 (soluble ligand in the cell migration assays) (P48061 22-89 limits assumed): as above

B1: 114_3H1 IgG (human IgG2) (antibody, V domains shown)
VH: QVQLVQSGAEVKKPGASVKVSCKVSGYTLTELSMHWVRQAPGKGLEWMGGFDPEDGETIYAQKFQGRVTMTEDTSTDTAYMELSSLGSEDTAVYYCARRVWGSYRPNDAFDIWGQGTLVTVSS
VL: DIQMTQSPSSLSASVGDRVTITCRASQSISDYVNWYQQKPGKAPNLLMFAASTSQSGVPSRFTGSGSGTDFTLTISSLQPEDFATYFCQQSYSPPYTFGQGTKVEIKR
[1]
  IC50, transwell migration of TOV-21G cells towards CXCL12 (further replicate experiments): 5 nM

B2: 114_3H1 Fab (Fab, V domains shown)
VH: B1 VH
VL: B1 VL
notes: Fab expressed from pBIOCAM-7 in HEK-293F cells, with hexa-histidine and tri-FLAG tags
[2]
  fold improvement in affinity from its parent clone 093_2D06: 3800 fold
[3]
  Kd: 2.4 nM
[4]
  kon: 490000 M⁻¹ s⁻¹
[5]
  koff: 0.00051 s⁻¹
[6]
  Kd: 1 nM

B3: 113_1H12 in a human IgG2 format (antibody, V domains shown)
VH: EVQLVQSGAEVKKPGASVKVSCKTSGYTFTNYGISWVRQAPGQGLEWMGWISAYNGNTNYAQKLQGRVTMTTDTSTSTAYMELRSLRSDDTAVYYCARAGGVYYDYFTDYWGQGTMVTVSS
VL: QSELTQPPSASGTPGQRVTISCSGSRSNIGSNSVNWYQQLPGTAPKLLIYNNDERPSGVPDRFSGSKSGTSASLAISGLQSEDEADYFCAAWDDSLNVGELFGGGTKLTVLG
[1]
  IC50, transwell migration of TOV-21G cells towards CXCL12 (further replicate experiments): 9 nM

B4: 113_1H12 Fab (Fab, V domains shown)
VH: B3 VH
VL: B3 VL
notes: as for B2
[7]
  fold improvement in affinity following light chain shuffling (against its parent clone): 4.5 fold
[3]
  Kd: 4.2 nM
[8]
  Kd: 3.7 nM
[9]
  ka 1: 510000 M⁻¹ s⁻¹
  kd 1: 0.04 s⁻¹
[10]
  ka 2: 0.015 s⁻¹
  kd 2: 0.00079 s⁻¹
